# In IntAct's records for PubMed 29178645:
# B1: Protein SHQ1 homolog (Homo sapiens), Q6PI26 (parent)
# chain: MLTPAFDLSQDPDFLTIAIRVPYARVSEFDVYFEGSDFKFYAKPYFLRLTLPGRIVENGSEQGSYDADKGIFTIRLPKETPGQHFEGLNMLTALLAPRKSRTAKPLVEEIGASEIPEEVVDDEEFDWEIEQTPCEEVSESALNPQCHYGFGNLRSGVLQRLQDELSDVIDIKDPDFTPAAERRQKRLAAELAKFDPDHYLADFFEDEAIEQILKYNPWWTDKYSKMMAFLEKSQEQENHATLVSFSEEEKYQLRKFVNKSYLLDKRACRQVCYSLIDILLAYCYETRVTEGEKNVESAWNIRKLSPTLCWFETWTNVHDIMVSFGRRVLCYPLYRHFKLVMKAYRDTIKILQLGKSAVLKCLLDIHKIFQENDPAYILNDLYISDYCVWIQKVKSKKLAALAEALKEVSLTKAQLGLELEELEAAALLVQEEETALKAAHSVSGQQTLCSSSEASDSEDSDSSVSSGNEDSGSDSEQDELKDSPSETVSSLQGPFLEESSAFLIVDGGVRRNTAIQESDASQGKPLASSWPLGVSGPLIEELGEQLKTTVQVSEPKGTTAVNRSNIQERDGCQTPNN
# partner: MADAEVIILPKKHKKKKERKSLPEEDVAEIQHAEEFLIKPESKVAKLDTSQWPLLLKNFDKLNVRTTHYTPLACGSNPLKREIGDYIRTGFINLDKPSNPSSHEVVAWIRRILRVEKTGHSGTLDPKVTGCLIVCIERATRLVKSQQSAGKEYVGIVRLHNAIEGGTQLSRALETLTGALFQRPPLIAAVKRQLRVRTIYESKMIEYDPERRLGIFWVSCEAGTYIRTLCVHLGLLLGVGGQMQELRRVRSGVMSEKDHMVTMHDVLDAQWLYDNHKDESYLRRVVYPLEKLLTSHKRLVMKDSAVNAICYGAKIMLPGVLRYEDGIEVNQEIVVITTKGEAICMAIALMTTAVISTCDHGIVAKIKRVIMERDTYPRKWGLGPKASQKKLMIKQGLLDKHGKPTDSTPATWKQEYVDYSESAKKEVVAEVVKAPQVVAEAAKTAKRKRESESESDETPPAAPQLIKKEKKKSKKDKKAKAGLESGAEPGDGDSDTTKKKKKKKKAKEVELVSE
# Variants of: B1
# Details: with dkc1_human DKC1, O60832
row,effect of a mutation on the interaction,Variant
1,decreasing interaction strength,R335C
2,decreasing interaction strength,A426V
3,decreasing interaction strength,R335C;A426V
